The target of the experiment is T1, CFP-AR-YFP (full length AR with cyan fluorescent protein and yellow fluorescent protein fused to either end) (UniProt P10275 1-920).
T1 construct: Reporter stably expressed in GT1-7 CARY cells; GT1-7 CARY lysates may also contain endogenous mouse AR; also called CARY; C-AR-Y; not shown: cyan fluorescent protein (CFP); yellow fluorescent protein (YFP)
T1 sequence (looked up): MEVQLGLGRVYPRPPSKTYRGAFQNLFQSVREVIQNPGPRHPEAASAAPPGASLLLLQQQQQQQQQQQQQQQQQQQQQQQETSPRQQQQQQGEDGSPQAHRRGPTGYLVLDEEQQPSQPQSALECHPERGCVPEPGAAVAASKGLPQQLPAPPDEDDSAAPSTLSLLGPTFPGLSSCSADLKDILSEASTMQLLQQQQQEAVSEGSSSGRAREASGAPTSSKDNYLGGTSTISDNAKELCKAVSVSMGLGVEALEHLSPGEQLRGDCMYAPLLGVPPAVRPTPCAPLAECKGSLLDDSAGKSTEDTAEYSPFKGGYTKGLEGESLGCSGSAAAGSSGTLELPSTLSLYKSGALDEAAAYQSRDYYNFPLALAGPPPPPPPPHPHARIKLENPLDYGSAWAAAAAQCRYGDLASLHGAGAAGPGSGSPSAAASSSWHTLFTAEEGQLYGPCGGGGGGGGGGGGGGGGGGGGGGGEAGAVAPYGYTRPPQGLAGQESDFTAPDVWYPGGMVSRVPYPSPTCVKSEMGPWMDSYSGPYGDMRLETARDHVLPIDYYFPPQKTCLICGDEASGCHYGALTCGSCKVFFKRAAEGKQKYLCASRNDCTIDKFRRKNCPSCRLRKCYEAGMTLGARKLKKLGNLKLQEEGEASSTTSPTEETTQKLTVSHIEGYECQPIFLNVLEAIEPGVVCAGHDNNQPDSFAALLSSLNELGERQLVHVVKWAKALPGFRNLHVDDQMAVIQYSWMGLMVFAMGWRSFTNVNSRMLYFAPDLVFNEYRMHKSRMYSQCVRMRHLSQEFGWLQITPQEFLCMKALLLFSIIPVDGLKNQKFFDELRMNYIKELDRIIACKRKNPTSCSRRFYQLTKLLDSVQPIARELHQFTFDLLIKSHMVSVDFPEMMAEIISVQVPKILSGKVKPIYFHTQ
Put plainly: co-immunoprecipitation from GT1-7 CARY cell lysates, Western blot.

B1: FOXM1 (other, mouse, UniProt O08696 1-760, looked up)
chain: MRTSPRRPLILKRRRLPLPVQNAPSETSEEEAKRSPAQPEPAPAQASQEVAESSSCKFPAGIKIINHPTTPNTQVVAIPSNADIQSIITALTAKGKESGTSGPNRFILISSGGPSSHPSQPQAHSSRDSKRAEVITETLGPKPAAKGVPVPKPPGAPPRQRQESYAGGEAAGCTLDNSLTNIQWLGKMSSDGLGPCSVKQELEEKENCHLEQNRVKVEEPSGVSTSWQDSVSERPPYSYMAMIQFAINSTERKRMTLKDIYTWIEDHFPYFKHIAKPGWKNSIRHNLSLHDMFVRETSANGKVSFWTIHPSANRHLTLDQVFKPLEPGSPQSPEHLESQQKRPNPELHRNVTIKTEIPLGARRKMKPLLPRVSSYLEPIQFPVNQSLVLQPSVKVPFRLAASLMSSELARHSKRVRIAPKVLLSSEGIAPLPATEPPKEEKPLLGGEGLLPLLPIQSIKEEEMQPEEDIAHLERPIKVESPPLEEWPSPCASLKEELSNSWEDSSCSPTPKPKKSYCGLKSPTRCVSEMLVTKRREKREVSRSRRKQHLQPPCLDEPDLFFPEDSSTFRPAVELLAESSEPAPHLSCPQEEGGPFKTPIKETLPVSSTPSKSVLSRDPESWRLTPPAKVGGLDFSPVRTPQGAFGLLPDSLGLMELNTTPLKSGPLFDSPRELLNSEPFDLASDPFGSPPPPHVEGPKPGSPELQIPSLSANRSLTEGLVLDTMNDSLSKILLDISFPGLEEDPLGPDNINWSQFIPELR
notes: also called Forkhead Box Protein M1
As for B1, the binding result is “no binding”.

The values are drawn from patent publication US20190167756A1 (CITY OF HOPE, published 2019).
